This is an account of results in paper PMC3440409.

Common to all, as to details: 1 mM MgCl2, 0.5 mM EDTA, 0.5 mM DTT, 50 mM NaCl, 10 mM Tris-HCl pH 7.5, 0.05 mg/ml poly(dI-dC), 10 ul, room temperature 30 min; footprinting in same buffer …
For series [1], the target named is T1, His-AphA (Vibrio parahaemolyticus RIMD 2210633) (UniProt Q87L53).
T1 sequence: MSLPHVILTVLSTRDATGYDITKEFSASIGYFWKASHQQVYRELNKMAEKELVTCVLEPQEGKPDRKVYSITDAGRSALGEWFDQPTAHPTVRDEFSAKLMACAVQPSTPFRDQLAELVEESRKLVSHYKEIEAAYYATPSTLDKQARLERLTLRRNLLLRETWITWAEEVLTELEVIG
Description: EMSA.

In series [2] the target is T1, His-AphA (Vibrio parahaemolyticus RIMD 2210633). Description: competition.
Series [3] shares this target. Description: DNase I footprinting.

In the case of “AACTTCCAACCACATAATTGCGCAGCAAATAACCAGACATTTACACTACAAAAAACCCATAAAATACCAACAAATTAGAATTATTAACTACAAAATAACTCTATTGAGTATTATGTTAGTTTTTCAGGGTAATTTTGTCCTAGTATTCCACTTCATGCTTATTATTTATATACTACTTGCCTGCTGAGAGCTCATAAATCCAATCATACCTGCTCCAGCC (double strand) [aphA promoter fragment]”, the binding entry in series [1], in series [2] and in series [3] was “binds” throughout. Take “AGTGGGTTGAAAGTCACATCCTTTTGCGGAAAATTCTTGGGAGCGCTGCCAAATTTTCGAAAGTTTACAGCAAAACTTATCAATAATAATGACATTACTGTCTATAAATTATCCATCAGATGTTGACCTTGTGCATATGCACCATTACACTCATCACTGCTTAAAGCAATTATTAAAATAATCAATTAGGGGGTTACCCCCAACAACAACTCAAATGGCAAGGAAAATGGATATGGACTCAATTGCAAAGAGACCTAGAACTAGGC (double strand) [opaR promoter fragment (footprinting)]”: the binding result in series [3] is “binds”. Turning to “AGTGGTTGCTTATGAATCAATCCCAGGAAAAGGCGAGAACAGCGAACCTTCAACTCGTTAACATTTTATTTTCATTTACATTTTGACTAACTCAATTGTTAATAAATTACCTAAATTGCATTTTGAAATTGCAGAATGCAATTAAGTTTTGTTTTTTGCAAAAATTTATATAGGCAATATCAGTTTATATGAGATCTTGTGCCCAAAAATAAAGCTTTGAAAATTGGCATGATTAATGCATAATACTTCTCGACC (double strand) [qrr2 promoter fragment]”, in series [1], the binding entry is listed as “no binding”. Take “CGACGCATTATTAACCAGCACTTTCGCAAATTGCATTTGCAAAATGCAATAGCATGCAAATATGCCACTTGTTACATTGCTACTAATCACTTTCTCAGCAAAAAACCAACTACTACTTTATGATTATCCATTAGCTTTCATATTTTTACCCTATACTGCTAATTAATGAGGAAAAATACCTCAGTAAATGGATTTCACGGTT (double strand) [qrr4 promoter fragment]”: the binding result in series [1] and in series [3] was “binds” in each case. For “GGATAAGTTCAAATTGGATCCAGCCTTAGCAGGCTCGGTTATTCTAACGACAGTGACAGATGTGGTTGGTTTTTTCGCCTTTTTGGGAACGGCGAGTTTAGTCATGCTCTAAAAAGTCCACTGTTTATTAATCAATCATTAGCATAATAGAGACAAATTGCATAACGCACTTGCAAATTGCAAAAACATTCAAAGTTTAAGCAACGTATGTCACAGAAACCAC (double strand) [qrr3 promoter fragment]”, in series [1], the binding entry is on record as “no binding”.
